Measured values: the DeepSol protein solubility set

Assay: soluble on expression in E. coli; label from the status in PepcDB or PDB records
In the case of “MESPSALPSLDQLLKEQGADQTLTDLILAILDRCGKIASALQGTSVDKVGSVNEFGDEQLTVDVIAENLLRSWAQSSEGSAVRAVCSEEDIHLQECHKNGEFILCWDPLDGSSIIDCNWAVGSIVSIWRIGHHGVQWQGADTLIQKTGRQQVASLIVVYGPRTTGVVAVNVDAGGIVKEGTALDLEMKDNGKFICRGKPIIKPQAKIFSPANLRAAQDLPAYKQLIEFWMEKRYTLRYTGGLVPDVYQIFVKQQGVFCNPASKAAPAKLRMCFEVLAIALVVEAAGGRTSNGQKSLLDVAIEHMDHRSALCCGSADEIKRMEETFAALSG”, the “soluble on expression in E. coli” value is reported as “soluble”. With “MESQVRQNFHQDCEAGLNRTVNLKFHSSYVYLSMASYFNRDDVALSNFAKFFRERSEEEKEHAEKLIEYQNQRGGRVFLQSVEKPERDDWANGLEALQTALKLQKSVNQALLDLHAVAADKSDPHMTDFLESPYLSESVETIKKLGDHITSLKKLWSSHPGMAEYLFNKHTLG” the “soluble on expression in E. coli” value was “soluble”. In the case of “MESVKCFDMITAFFDLSDSVHVVRKNGGLAFGKTWLGNFFVLVREVKILRATTEKFSLVNLRKLEPHSGQFRNQIREESAYRHPFLRIVVKVILAKRLRPLPYLTSKSK”, the “soluble on expression in E. coli” value is reported as “not soluble”. For “MESYLRLSEVDKQILHSHALMLDGLGNFFGSTHEVILHSLENLESSAIKVINGHFSNRKEGAPITDMALKMLSQVESEHDYAVKPYYNKNQKGVILKSSTIPVIGENDRIIGLICINMHLEMPLIDYLQDLLPSGQQNDMSQELKNSEHFSDNIDELITTSLTKVKQAVESDPNVSHLNQNKEIVIRLYDQGIFNLKDSVIKIADRLGISKNTIYLHIRNHKKEEA”, the “soluble on expression in E. coli” value was “not soluble”. For “METKDLIVIGGGINGAGIAADAAGRGLSVLMLEAQDLACATSSASSKLIHGGLRYLEHYEFRLVSEALAEREVLLKMAPHIAFPMRFRLPHRPHLRPAWMIRIGLFMYDHLGKRTSLPGSTGVRFGADSVLKPEIVRGFEYSDCWVDDARLVLANAQMVVRKGGEVLTRTRATAARRENGLWIVEAEDIDTGKKYVWQARGLVNATGPWVKQFFDEGMHLPSPYGIRLIKGSHIVVPRVHNQKQAYILQNEDKRIVFVIPWMEEFSIIGTTDVEYKGDPKAVKIEESEINYLLKVYNAHFQKQLGRDDIVWTYSGVRPLCDDESDSPQAITRDYTLDIHDENGKAPLLSVFGGKLTTYRKLAEHAMEKLASYYPGIGPAWTKTCVLPGGDIDGSREDYAAKLRRRYPFLTESLARHYSRTYGSNTEWILGEATSLLDLGEDFGHEFYEAELKYLVDHEWVRRTEDAIWRRTKEGMWLTAEQQSRITQWLAAYVEKHQLSMAS”, the “soluble on expression in E. coli” value was “not soluble”. For “METPQDSRQSIQKPPSPAAEEDKEEQPGGNAVVSGAPEERIDKKELVLNWLAQGEFDQGEGAQGEVAGGEQAQEEPAPLSPAQEATGGEEEGENKEGEMEGRHAGDGASSSEDDSILEEGGENIDQQPPQQEAASPDSIRNPHVLNRLAQLRYRRTRFTHFQLHDLERLFQETRYPSLRARRDLARWMGVDECDVQNWFRMRRALFQRNRRVLMFCELPPLPQSDSP”, the “soluble on expression in E. coli” value was “soluble”. With “METRRIRKVLVANRGEIAIRVFRACTELGIRTVAIYSKEDVGSYHRYKADEAYLVGEGKKPIEAYLDIEGIIEIAKAHDVDAIHPGYGFLSENIQFAKRCREEGIIFIGPNENHLDMFGDKVKARHAAVNAGIPVIPGSDGPVDGLEDVVAFAEAHGYPIIIKAALGGGGRGMRIVRSKSEVKEAFERAKSEAKAAFGSDEVYVEKLIENPKHIEVQILGDYEGNIVHLYERDCSVQRRHQKVVEVAPSVSLSDELRQRICEAAVQLMRSVGYVNAGTVEFLVSGDEFYFIEVNPRIQVEHTITEMITGIDIVQSQILIADGCSLHSHEVGIPKQEDIRINGYAIQSRVTTEDPLNNFMPDTGKIMAYRSGGGFGVRLDAGNGFQGAVITPYYDSLLVKLSTWALTFEQAARKMLRNLREFRIRGIKTNIPFLENVVQHPKFLSGEYDTSFIDTTPELFVF” the “soluble on expression in E. coli” value was “soluble”. For “METYDLVIIGGGINGAGIARDAAGRGLSVLLCEKDDLASHTSSASTKLIHGGLRYLEYYEFGLVRKALQEREVLLKAAPHIIWPLRFVMPHARDQRPEWMIRAGLFLYDHLAKREVLPGSETVSFARHPSGAPLKDAFKRGFVYSDGWVQDARLVVLNAMDAAEHGAKIHVRTACVAARRDGEHWLATLEREDGSRFEVRARALVNAAGPWVQSLIEDKLAMPSSKSIRLVKGSHIVVKKIFDHPFAYIFQNPDKRIIFAIPYEKDFTLIGTTDVEYHGDPAQVAIDGDEINYLCEMSNRYFHSQITPADVLSTYSGVRPLLDDASDNASSVTRDYALEMDLKGAPLLSVFGGKITTFRKLAEEAVDKIAPLLGCGQATWTAGAPLPGGDMPGADFGRFLQGLRQRHPWLPEALAERWARAYGTRVGKLIGKADSLAGLGKEVLPGLYEAELAYLADAEWATRSEDILWRRSKLKLHLPANAAEVVDAWLAARAQPPREALSALEHHHHHH”, the “soluble on expression in E. coli” value was “not soluble”. For “METYTVKLGSDKGLLVFEPAKLTIKPGDTVEFLNNKVPPHNVVFDAALNPAKSADLAKSLSHKQLLMSPGQSTSTTFPADAPAGEYTFYCEPHRGAGMVGKITVAG”, the “soluble on expression in E. coli” value was “soluble”. For “MEVCSTVTTKKLSSLAKLILFTIQKVSDASRHKLLTTLDPHLLAKRGKILRKSLNEAVSTSHSRITCRPSDHQDVRSSFISPVPLQLEYEFSCSSTPPRRSYATTVSKGRRSNGSHNRPLINKRQRQAYIRYNTLPKVRDSIWDRHVAAAVFPDVASSTGTMESCHVDRAAEEFIQSFYRQLRLQKWMMAQEV”, the “soluble on expression in E. coli” value was “not soluble”. In the case of “MEVKEMFSLGGGLGRSKVDESKVWDVIIIGAGPAGYTAAIYAARFGLDTIIITKDLGGNMAITDLIENYPGFPEGISGSELSKKMYDQVKKYGVEVIIDEVIRIDPAECAYYEGPCNFVVKTANGKEYKAKTIIIAVGAEPRKLNVPGEKEFTGRGVSYCATCDGPLFVGKEVIVVGGGNTALQEALYLHSIGVKVTLVHRRDKFRADKILQDRFKQAGIPAILNTVVTEIKGTNKVESVVLKNVKTGETVEKKVDGVFIFIGYEPKTDFVKHLGITDEYGYIPVDMYMRTKVPGIFAAGDITNVFKQIAVAVGQGAIAANSAKEFIESWNGKTIE”, the “soluble on expression in E. coli” value is reported as “soluble”. With “MEVVEAAAAQLETLKFNGTDFGVGEGPAAPSPGSAPVPGTQPPLQSFEGSPDAGQTVEVKPAGEQPLQPVLNAVAAGTPAPQPQPPAESPACGDCVTSPGAAEPARAPDSLETSDSDSDSDSETDSDSSSSSSSSSSSSSSSSSSCISLPPVLSDGDDDLQVEKENKNFPLKTKDELLLNELPSVEELTIILPEDIELKPLGMVSSIIEQLVIIESMTNLPPVNEETVIFKSDRQAAGKIFEIFGPVAHPFYVLRFNSSDHIESKGIKIKETMYFAPSMKDFTQYIFTEKLKQDKGSDASWKNDQEPPPEALDFSDDEKEKEAKQRKKSQIQGRKKLKSEFNEPGEDFTEVHQNWNAHSSASEHAKGYRNREFTRGFSRARYPRSCHGRPPPQHFYNSEHMVSQETSGFPSQRQNNPIMPQYPFPLPVFDMHNFPLRPPPPPPPPPVNMGWATPNMAAHPLLNLPYSLPPPPPPPPLPPPPSSGDSNSHFGPYY” the “soluble on expression in E. coli” value was “soluble”. For “MEVVRIPEFKEKTAPGAYYQQPAIDGSRPGRFYANLFDIKATPKYGMRTLAYHEGIPGHHFQVAVAMELEGQPLIRKMAPFTAYIEGWALYSERVAWELGFQQDPFDNIGRLQAELFRAVRLVVDTGIHHSRWTREQAIDYMKKNTGMSDRDVTAEIERYIVMPGQATAYKVGMMKILELREKAKQALGDKFDLRDFHDVVLKNGAVPLDILEKLVDRYIADKRSQA”, the “soluble on expression in E. coli” value was “not soluble”. With “MEYGAICTPFIFVVYAKSKYLCVLISNEMGKNKLEKFADMASYPHVFEYPYSAVDNVPFDMKGKWHQEFFGNDHPIVLELGCGRGEYTVGLGRMFPDKNFIAVDIKGSRMWTGATESLQAGMKNVAFLRTNIEIIERFFAAGEVSEIWLTFSDPQMKKATKRLTSTYFMERYRKFLKPDGIIHLKTDSNFMFTYTKYMIEANQLPVEFITEDLYHSDLVDDILSIKTYYEQQWLDRGLNIKYIKFRLPQEGVLQEPDVEIELDPYRSYNRSKRSGLQTSK” the “soluble on expression in E. coli” value was “not soluble”. For “MEYHLRTKLNGNIAMTSCFHENSFLQCDRSLYKFIWVRHGALDVEVDHVVMHLEKEEMISLTPLHHVQIRGVDGEYLTFLFNSNFYCIYGHDSEVSCNGFLFNGSSRVMRLKLSPSQSARLDSIVDIFRGECGIQDNLQEEMLRIILKRFIITCTRIAREKFDVDPGRENMFDVIRQFYVLVDSHFKEKKQVQDYADMLCRSPKTISNLFSLYGLSSPLRVIHERVDAEAKRLLLYTGKSAKEISEILGFEDLATFSRFFKKMNKESLSEYRKREKRE”, the “soluble on expression in E. coli” value was “not soluble”. With “MEYKSSPKRPYYLRGFYDWLVDNSFTPYLVVDATYLGVNVPVEYVKDGQIVLNLSASATGNLQLTNDFIQFNQRFKGVSRELYIPMGAALAIYARENGDGMMFEPEEIYDELNIEPDTEQPTGFYEAVD” the “soluble on expression in E. coli” value was “soluble”. With “MEYLFLRRKKTSSTSVRQKTLLYRAAGREWTARFSSLSDVRPADSLIYKGILYQLEIRRAFLDSSLSLKKLSMMLETNQTYLSNAVNRYFGCHLKELLNRYRVEYAKELLRNGGCPLGEVPSRSGFGSKSPFYLAFVRQTGMTPKRYAARERNLVNLEIENEVLL” the “soluble on expression in E. coli” value was “not soluble”. In the case of “MEYRSLTLDDFLSRFQLLRPQINRETLNHRQAAVLIPIVRRPQPGLLLTQRSIHLRKHAGQVAFPGGAVDDTDASAIAAALREAEEEVAIPPSAVEVIGVLPPVDSVTGYQVTPVVGIIPPDLPYRASEDEVSAVFEMPLAQALHLGRYHPLDIYRRGDSHRVWLSWYEQYFVWGMTAGIIRELALQIGVKPMGHHHHHHSH”, the “soluble on expression in E. coli” value is reported as “not soluble”. With “MFAIQPGLAEGGQFLGDPPPGLCQPELQPDSNSNFMASAKDANENWHGMPGRVEPILRRSSSESPSDNQAFQAPGSPEEGVRSPPEGAEIPGAEPEKMGGAGTVCSPLEDNGYASSSLSIDSRSSSPEPACGTPRGPGPPDPLLPSVAQAVQHLQVQERYKEQEKEKHHVHLVMYRRLALLQWIRGLQHQLIDQQARLQESFDTILDNRKELIRCLQQRAAPSRPQDQA” the “soluble on expression in E. coli” value was “soluble”. In the case of “MFCTFFEKHHRKWDILLEKSTGVMEAMKVTSEEKEQLSTAIDRMNEGLDAFIQLYNESEIDEPLIQLDDDTAELMKQARDMYGQEKLNEKLNTIIKQILSISVSEEGEKE”, the “soluble on expression in E. coli” value is reported as “soluble”. For “MFCVRCGSSDSELYEGLCRDCFLEDYSILRIPDRIEVRVCSHCRAKFISGQWLDEGLPDEEIVYRALEDSISWDEPVENPEIELEIMQERGTIYRCLVEVDAEVLGKRLSQEYEVEVRITNTVCPTCSKQSSGYYEAVIQLRADGRELAETEIETADRVVQRTLLKLSRRDKLAYLPQRVEVKEGVDYYIGSHKSARKVVDAIREKLGGITMESPRLMGQDKSTGKGLYRTWISLRLANFRVGDFLSHHNRILAVIDLRKKGVSVRDLETREVKNILWGEYEDMDVVGRADDVKTTTVTSRSPGMIQILHPETFEPVDLEADSYTSTLDIGEQVPVIEIDKRLYIIEDEAEELEHHHHHH”, the “soluble on expression in E. coli” value was “soluble”. For “MFELDLRSRQPIYEQLIDKMKEMIVRELWQPHDQLPSVRTMAKQLMINPNTIQKAYRELERDGWIYSIPGKGSFVAPRSKEPNIEAIAAVREQFVRLVKEARFLGVTNEQLWQWIREGEERGGES”, the “soluble on expression in E. coli” value was “not soluble”. With “MFFCTILSFFDFGRYFMEKNQYEIYHENKKHTPNDFPYNTYLCSIPLDFKSVNLHWHNEVELIVIKKGQGLVNVNLVTYTVNAGDVVFVFPGQLHSISQKDYSIMEYENILFKSSLLKSSGYDLCNDKFIQPLLSGNLNIYPVINSNFDFHDSLYSLINEIDKLCDKRPYAYQLAVKSYLFQIFYLLISNCGLNQIKPISKKALEK” the “soluble on expression in E. coli” value was “not soluble”.
